Data reported in US20160280792A1 (Kyowa Kirin, published 2016).

T1: IL-3Rα/GM-CSFRα chimeric protein, B domain of IL-3Rα replaced by that of GM-CSFRα, on HEK293T cells (human, UniProt P15509 115-213)
T1 construct: domain: B domain; The KpnI sites (GGTACC) at both junctions each encode an extra Gly-Thr; also called B domain substitution
T1 sequence: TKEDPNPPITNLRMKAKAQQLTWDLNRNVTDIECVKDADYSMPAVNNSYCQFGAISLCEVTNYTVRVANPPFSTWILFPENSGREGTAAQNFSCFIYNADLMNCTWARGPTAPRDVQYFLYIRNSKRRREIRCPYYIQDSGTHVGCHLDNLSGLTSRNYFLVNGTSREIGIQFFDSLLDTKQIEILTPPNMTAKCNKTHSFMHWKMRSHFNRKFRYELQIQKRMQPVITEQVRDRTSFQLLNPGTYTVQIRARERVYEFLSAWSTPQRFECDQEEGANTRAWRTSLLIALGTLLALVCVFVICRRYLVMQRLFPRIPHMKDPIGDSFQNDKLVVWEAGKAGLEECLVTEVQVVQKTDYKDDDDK

T2: IL-3Rα/GM-CSFRα chimeric protein, C domain of IL-3Rα replaced by that of GM-CSFRα, on HEK293T cells (human, UniProt P15509 214-327)
T2 construct: domain: C domain; KpnI sites at both junctions each encode an extra Gly-Thr; also called C domain substitution
T2 sequence: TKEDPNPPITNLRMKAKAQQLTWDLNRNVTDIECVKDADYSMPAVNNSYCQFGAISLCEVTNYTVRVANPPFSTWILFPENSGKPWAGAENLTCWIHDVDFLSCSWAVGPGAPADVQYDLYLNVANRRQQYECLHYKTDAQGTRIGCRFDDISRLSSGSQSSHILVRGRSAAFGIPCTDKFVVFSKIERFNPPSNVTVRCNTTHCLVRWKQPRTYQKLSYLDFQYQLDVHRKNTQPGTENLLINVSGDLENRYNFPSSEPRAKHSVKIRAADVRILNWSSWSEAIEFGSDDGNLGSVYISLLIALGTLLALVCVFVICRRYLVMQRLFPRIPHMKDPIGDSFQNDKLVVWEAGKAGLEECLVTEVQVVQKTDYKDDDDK

T3: soluble form of human IL-3Rα protein (extracellular region with C-terminal FLAG tag) (human, UniProt P26951 19-305)
T3 construct: Made in CHOras1 cells, purified on anti-FLAG gel; also called soluble form of IL-3Rα protein; soluble form of human IL-3Rα extracellular region
T3 sequence: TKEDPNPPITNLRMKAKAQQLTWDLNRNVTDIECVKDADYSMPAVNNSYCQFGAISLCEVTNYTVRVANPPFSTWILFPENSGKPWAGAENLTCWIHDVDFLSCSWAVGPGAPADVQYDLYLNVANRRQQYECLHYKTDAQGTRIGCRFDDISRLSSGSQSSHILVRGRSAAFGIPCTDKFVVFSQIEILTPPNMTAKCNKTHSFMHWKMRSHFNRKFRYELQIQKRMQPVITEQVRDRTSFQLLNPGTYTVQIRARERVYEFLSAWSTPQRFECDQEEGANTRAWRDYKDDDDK

T4: IL-3Rα/GM-CSFRα chimeric protein, region 6 (182-ILVRGRS-188) of IL-3Rα replaced by GM-CSFRα sequence, on … (human, UniProt P26951 19-378)
T4 construct: also called Region 6 (B)
T4 chain: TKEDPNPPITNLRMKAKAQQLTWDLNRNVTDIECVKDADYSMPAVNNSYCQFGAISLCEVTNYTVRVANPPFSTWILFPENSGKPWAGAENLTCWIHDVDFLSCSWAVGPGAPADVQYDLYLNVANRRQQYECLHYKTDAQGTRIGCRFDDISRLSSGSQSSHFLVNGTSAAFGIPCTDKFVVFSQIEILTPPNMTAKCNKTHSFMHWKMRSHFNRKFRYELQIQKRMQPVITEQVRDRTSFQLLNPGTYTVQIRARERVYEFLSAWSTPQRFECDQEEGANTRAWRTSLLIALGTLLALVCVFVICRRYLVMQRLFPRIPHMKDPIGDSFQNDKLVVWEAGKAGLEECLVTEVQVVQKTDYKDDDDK

T5: IL-3Rα/GM-CSFRα chimeric protein, region 7 (192-GIPCTDK-198) of IL-3Rα replaced by GM-CSFRα sequence, on … (human, UniProt P26951 19-378)
T5 construct: also called Region 7 (B)
T5 chain: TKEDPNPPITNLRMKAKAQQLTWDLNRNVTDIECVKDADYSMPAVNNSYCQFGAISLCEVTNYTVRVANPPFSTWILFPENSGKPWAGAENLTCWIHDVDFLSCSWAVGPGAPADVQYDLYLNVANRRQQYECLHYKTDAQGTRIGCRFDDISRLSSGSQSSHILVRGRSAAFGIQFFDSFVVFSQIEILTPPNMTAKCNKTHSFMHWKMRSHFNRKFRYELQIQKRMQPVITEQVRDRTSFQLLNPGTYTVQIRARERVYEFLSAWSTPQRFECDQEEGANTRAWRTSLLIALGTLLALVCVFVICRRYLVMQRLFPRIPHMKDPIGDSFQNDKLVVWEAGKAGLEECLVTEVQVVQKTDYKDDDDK


Tests used:
[1] = biological target: T1, IL-3Rα/GM-CSFRα chimeric protein, B …; assay: flow cytometry, labelled antibody at 1 µg/ml, HEK293T cells expressing the construct
Protocol: (§1) HEK293T cell (ATCC CRL 1268) was used for the preparation of the IL-3Rα/GM-CSFRα chimeric protein expression cell. Using 293Fectin (Invitrogen), the plasmid DNA obtained in the above was introduced as an expression vector into the HEK293T. The HEK293T to which the expression vector was introduced was cultured using a shaker under conditions of 5% CO₂ and 37° C. after 2 days of the introduction, the […] was used for in the flow cytometry analysis.
(§2) From 100,000 to 1,000,000 cells of the chimeric protein expression cell were allowed to react for 30 minutes on ice with at a concentration of 1 μg/ml with an AlexaFlour488-labeled human antibody or a commercially available FITC-labeled anti-IL-3Rα mouse antibody (7G3 or 9F5: both from BD Biosciences, 6H6: Acris Antibodies, AC145: Milteny Biotech, 107D2.08: Dendritics). A staining medium (Dulbecco's PBS supplemented with 2% fetal bovine serum, 2 mM EDTA and 0.05% NaN₃) was used for the dilution of antibodies and cells. Next, the cells reacted with antibodies were washed three times with the staining medium and whether the labeled antibody bound to the cell was confirmed by flow cytometry.

[2] = biological target: T2, IL-3Rα/GM-CSFRα chimeric protein, C …; assay: as above
Protocol: as §1, §2

[3] = biological target: T3, soluble form of human IL-3Rα protein …; assay: SPR (Biacore 2000): antibody captured on anti-human antibody CM5 chip, soluble IL-3Rα as analyte, 1:1 Langmuir fit
Protocol: Specifically, CM5 (research grade) was used for a sensor tip (each GE). Firstly, the CM5 tip was activated by applying an equivalent mixture of 400 mM EDC (N-ethyl-N′-(3-dimethylaminopropyl)carbodiimidehydrochloride) and 100 mM NHS (N-hydroxysuccinimide) to the CM5 tip. Next, an antibody to the human antibody attached to the Human Antibody Capture Kit (GE) (hereinafter, referred to as anti-human antibody antibody) was diluted with the solution attached to the kit and applied thereto, thereby immobilizing the required amount of the anti-human antibody antibody to the CM5 tip. Regarding the mouse antibody to be used as a control, an antibody to the mouse antibody attached to the Mouse Antibody Capture Kit (GE) (hereinafter, referred to as anti-mouse antibody antibody) was diluted with the solution attached to the kit and applied thereto, thereby immobilizing a necessary amount thereof to the CM5 tip. Next, the surface of the activated tip was blocked and inactivated by applying 1 M of ethanolamine dihydrochloride thereto. By the above steps until this, preparation of a CM5 sensor tip which can measure the dissociation constant KD was completed.
Next, each of anti-IL-3Rα antibodies, was diluted to give a concentration of 5 μg/ml with HBS-FP buffer (GE) one kind per one flow cell and applied, thereby allowing it to bind to the immobilized anti-human antibody antibody or anti-mouse antibody antibody. Next, the soluble form of IL-3Rα protein was applied thereto. In order to dissociate the bound anti-IL-3Rα antibody and soluble form of IL-3Rα protein, 3 M MgCl₂ attached to Human Antibody Capture Kit or pH 1.7 of Glycine-HCl attached to Mouse Antibody Capture Kit was applied in the amount attached to the kit. The steps until this were regarded as one step. By repeating the same steps using two or more concentrations of the soluble form of IL-3Rα protein, data for calculating association and dissociation constants (sensorgram) were obtained.
In the analysis, Biaevaluation software (GE) was used and Biaevaluation Software Handbook was referred. Specifically, by carrying out simultaneous analysis of kinetics analysis, employing basically the 1:1 Langmuir binding reaction model and fitting, association rate constant (Ka) and dissociation rate constant (Kd) were calculated, and the value of dissociation constant KD was calculated by the calculation of Kd/Ka.

[4] = biological target: T4, IL-3Rα/GM-CSFRα chimeric protein, …; assay: flow cytometry, labelled antibody at 1 µg/ml, HEK293T cells expressing the construct
[5] = biological target: T5, IL-3Rα/GM-CSFRα chimeric protein, …; assay: as above

Binder	binding result [1]	binding result [2]	Kd [3] [nM]	binding result [4]	binding result [5]
Old4 anti-human IL-3Rα human antibody (antibody, human IgG1, V domains shown, Human antibody from KM mouse hybridoma; recombinant form made in N5KG1-Val Lark vector (human IgG1, kappa) in HEK293F) VH: QVQLLQSGAEVKKPGSSVKVSCKASGGTFSTYAISWVRQAPGQGLEWMGGIIPIFGIVNYAQKFQGRVTITADESTSTAYMELSSLRSEDTAVYYCARGGGSGPDVLDIWGQGTMVTVSS VL: VIWMTQSPSLLSASTGDRVTISCRMSQGIRSYLAWYQQKPGKAPELLIYAASTLQSGVPSRFSGSGSGTDFTLTISSLQSEDFATYYCQQYYSFPYTFGQGTKLEIK	no binding (tested: 1 µg/ml)	–	–	–	–
Old17 anti-human IL-3Rα human antibody (antibody, human IgG1, V domains shown, Human antibody; recombinant form in N5KG1-Val Lark vector (human IgG1, kappa)) VH: QVQLVQSGAEVKKPGSSVKVSCKTSGGTFSNFAISWVRQAPGQGLEWMGGIIPIFGSTNYAQKFQGRVTINADESTSTAYMELSSLRSEDTAVYYCAGGDKYGPYYFHYWGQGTLVTVSS VL: DIQMTQSPSSLSASVGDRVTITCRASQGISSWLAWYQQKPEKAPKSLIYAASSLQSGVPSRFSGSGSGTDFTLTISSLQPEDFATYYCQQYNSYPYTFGQGTKLEIK	–	–	1.43	–	–

Results, then the binder that gave them:

binding result [1]	binding result [2]	Kd [3] [nM]	binding result [4]	binding result [5]	Binder
no binding (tested: 1 µg/ml)	no binding (tested: 1 µg/ml)	1.26	–	–	Old6 anti-human IL-3Rα human antibody (antibody, human IgG1, V domains shown, Human antibody) VH: EVQLVESGGGLVKPGGSLRLSCAASGFTFSSHNMNWVRQAPGKGLEWVSSISSSSSYIYYADSVKGRFTISRDNAKNSLYLQMNSLRAEDTAVYYCAREDWGYFDYWGQGTLVTVSS VL: AIQLTQSPSSLSASVGDRVTITCRASQGISSDLAWYQQKPGKAPKLLIYDASSLESGVPSRFSGSGSGTDFTLTISSLQPEDFATYYCQQFNSYPFTFGPGTKVDIK
–	–	1.88	–	–	chimeric 7G3 antibody (mouse 7G3 variable regions, human IgG1 constant region) (antibody, V domains shown, also called 7G3 (Chimeric antibody)) VH: EVQLQQSGPELVKPGASVKMSCKASGYTFTDYYMKWVKQSHGKSLEWIGDIIPSNGATFYNQKFKGKATLTVDRSSSTAYMHLNSLTSEDSAVYYCTRSHLLRASWFAYWGQGTLVTVSA VL: DFVMTQSPSSLTVTAGEKVTMSCKSSQSLLNSGNQKNYLTWYLQKPGQPPKLLIYWASTRESGVPDRFTGSGSGTDFTLTISSVQAEDLAVYYCQNDYSYPYTFGGGTKLEIK
no binding (tested: 1 µg/ml)	–	–	–	–	Old5 anti-human IL-3Rα human antibody (antibody, human IgG1, V domains shown, Human antibody; recombinant form in N5KG1-Val Lark vector (human IgG1, kappa)) VH: QVQLVQSGAEVKKPGSSVKVSCKASGGTFSTYAISWVRQAPGQGLEWMGGLIPIFDIENYAQKFQGRVTITADESTSTVYMELSSLRSEDTAMYYCARGGGSGPDVLDIWGQGTMVTVSS VL: VIWMTQSPSLLSASTGDRVTISCRMSQGIRSYLAWYQQKPGKAPELLIYAASTLQSGVPSRFSGSGSGTDFTLTISSLQSEDFATYYCQQYYSFPYTFGQGTKLEIK
no binding (tested: 1 µg/ml)	–	0.798	no binding (tested: 1 µg/ml)	no binding (tested: 1 µg/ml)	New102 anti-human IL-3Rα human antibody (antibody, human IgG1, V domains shown, Human antibody; recombinant form in N5KG1-Val Lark vector (human IgG1, kappa)) VH: QVQLVQSGAEVKKPGSSVKVSCMASGGTVSSYAISWVRQAPGQGLEWMGEIIPIFGIVNYAQKFQGRVTITADESTNTAYMELSSLRSEDTAIYYCARETAVAGILGYWGQGTLVTVSS VL: DIQMTQSPSSLSASVGDRVTITCRASQGISSWLAWYQQKPEKAPKSLIYAASSLQSGVPSRFSGSGSGTDFTLTISSLQPEDFATYYCQQYNSYPYTFGQGTKLEIK
